Laboratory results: article PMC5821843, “Development of a high-throughput assay for rapid screening of butanologenic strains” (Scientific Reports, 2018)

B1: Sc ADH (Saccharomyces cerevisiae S288C) (protein)
chain: SIPETQKGVIFYESHGKLEYKDIPVPKPKANELLINVKYSGVCHTDLHAWHGDWPLPVKLPLVGGHEGAGVVVGMGENVKGWKIGDYAGIKWLNGSCMACEYCELGNESNCPHADLSGYTHDGSFQQYATADAVQAAHIPQGTDLAQVAPILCAGITVYKALKSANLMAGHWVAISGAAGGLGSLAVQYAKAMGYRVLGIDGGEGKEELFRSIGGEVFIDFTKEKDIVGAVLKATDGGAHGVINVSVSEAAIEASTRYVRANGTTVLVGMPAGAKCCSDVFNQVVKSISIVGSYVGNRADTREALDFFARGLVKSPIKVVGLSTLPEIYEKMEKGQIVGRYVVDTSK
B2: Th ADH (Th ADH_ae) (Pseudothermotoga hypogea DSM 11164 = NBRC 106472) (protein)
chain: MENFVFHNPTKLIFGKGTIPKIGEEIKSFGIKKVLMLYGGGSIKKNGVYDQVVESLKRNGIEWVEVSGVKPNPVLSKVHEAIEVCRKENVEAVLGVGGGSVIDSAKAIAAGVLYEGDIWDAFAGKHKINNALPVFAILTISATGTEMNGNAVVTNEKTQEKWAISAKCLYPRVSIIDPTAQFSLPKEQTVYGAVDAIAHTLEYYFDGSDSDIQNQISESIIRSIMKSTEVLIDNPQDYEARANFAWCATIALNGLTAAGRKGGDWSCHKIEHSLSALYDIAHGAGLAIVFPAWMRYVYKQKPQQFERFAKHVFSIDAVGEEAILKGIDAFKAWLRKVGAPVSLRDVGIPAQDIDRIVENVMKQGPSFGVLKKLGKEDVKQILLIASQ
notes: ORF in pET-33b, N-terminal His6 tag (kept), E. coli BL21(DE3) Rosetta grown anaerobically, purified aerobically; ~42 kDa

What was measured:
purified protein [1] = substrate: CCO; test: purified protein; details: 330 µM NAD+, 8 µM PMS, 330 µM NBT, 0.1% gelatin, 100 mM Tris-HCl pH 8.6, ~22 °C
purified protein [2] = substrate: CCCCO; test: purified protein; type: biochemical, Pseudothermotoga hypogea; details: NADP+ co-substrate, CAPS pH 11.6, 1 mM DTT, 0.1 mM FeCl2, 80 °C, anaerobic, aerobically purified enzyme

| Protein | Km (purified protein [1]) [mM] | kcat (purified protein [1]) [s⁻¹] | Km (purified protein [2]) [mM] | kcat (purified protein [2]) [s⁻¹] |
| --- | --- | --- | --- | --- |
| B1 | 22.7 ± 2.9 | 20.5 ± 2.37 | – | – |
| B2 | – | – | 34.1 ± 0.6 | 3.943 ± 0.0867 |
